Measured values from patent US20240116985A1, “STAPLED PEPTIDES AND METHODS THEREOF” (priority 2020, published 2024).
Starred links: 1 amine or outer side, 2 acyl side, 3 side chain; linkers in the order of their positions; H or OH if unused. Positions of bridges follow the written chain, without caps; N, C: chain ends. Non-standard residues stand in square brackets, D forms with d. Primed or numbered codes have the meaning given here. PyrS2(3) = (S)-3-amino-1-((pent-4-en-1-yloxy)carbonyl)pyrrolidine-3-carboxylic acid, stapling residue, C=CCCCOC(=O)N1CC[C@@](N[*:1])(C(=O)[*:2])C1; PyrS2″ = (S)-3-amino-1-((pent-4-en-1-yloxy)carbonyl)pyrrolidine-3-carboxylic acid (stapling residue), C=CCCCOC(=O)N1CC[C@@](N[*:1])(C(=O)[*:2])C1; B5(4) = 2,2-bis(4-pentenyl)glycine = 2-amino-2-(pent-4-en-1-yl)hept-6-enoic acid (stitching residue), C=CCCCC(CCCC=C)(N[*:1])C(=O)[*:2]; B5(5) = 2,2-bis(4-pentenyl)glycine, 2-amino-2-(pent-4-en-1-yl)hept-6-enoic acid (stitching residue), C=CCCCC(CCCC=C)(N[*:1])C(=O)[*:2]; B5(21) = 2-amino-2-(pent-4-en-1-yl)hept-6-enoic acid, bis(4-pentenyl)glycine (stitching residue), C=CCCCC(CCCC=C)(N[*:1])C(=O)[*:2]; (EtSSpy)AspE = (S)-2-amino-4-oxo-4-(2-(pyridin-2-yldisulfaneyl)ethoxy)butanoic acid, O=C(C[C@H](N[*:1])C(=O)[*:2])OCCSSc1ccccn1; PyrS2 = (S)-3-amino-1-((pent-4-en-1-yloxy)carbonyl)pyrrolidine-3-carboxylic acid, C=CCCCOC(=O)N1CC[C@@](N[*:1])(C(=O)[*:2])C1; B5(12) = 2-amino-2-(pent-4-en-1-yl)hept-6-enoic acid (two olefin side chains), C=CCCCC(CCCC=C)(N[*:1])C(=O)[*:2]; B5(22) = 2-amino-2-(pent-4-en-1-yl)hept-6-enoic acid (two alkene side chains), C=CCCCC(CCCC=C)(N[*:1])C(=O)[*:2]; 4TriA = (S)-2-amino-3-(1H-1,2,3-triazol-4-yl)propanoic acid, O=C([C@H](Cc1c[nH]nn1)N[*:1])[*:2]; B5(3) = 2,2-bis(4-pentenyl)glycine (stitching residue), C=CCCCC(CCCC=C)(N[*:1])C(=O)[*:2]; AspSH = (S)-2-amino-4-mercapto-4-oxobutanoic acid, O=C(C[C@H](N[*:1])C(=O)[*:2])S[*:3]; B5″ = 2,2-bis(4-pentenyl)glycine, stitching residue, C=CCCCC(CCCC=C)(N[*:1])C(=O)[*:2]; B5 = 2-amino-2-(pent-4-en-1-yl)hept-6-enoic acid, C=CCCCC(CCCC=C)(N[*:1])C(=O)[*:2]; Phe(3-COOH) = N[C@@H](Cc1cccc(C(=O)O)c1)C(=O)O; Phe(2-CF3) = N[C@@H](Cc1ccccc1C(F)(F)F)C(=O)O; Trp(1-Me) = Cn1cc(C[C@H](N)C(=O)O)c2ccccc21; Ala(4-thiazolyl) = N[C@@H](Cc1cscn1)C(=O)O; Phe(2-Cl) = N[C@@H](Cc1ccccc1Cl)C(=O)O; Bta = N[C@@H](Cc1csc2ccccc12)C(=O)O; αAllylPro = C=CC[C@@]1(C(=O)O)CCCN1; tBuAla = CC(C)(C)C[C@H](N)C(=O)O; 3Thi = N[C@@H](Cc1ccsc1)C(=O)O; S8 = C=CCCCCCC[C@](C)(N)C(=O)O; R5 = C=CCCC[C@@](C)(N)C(=O)O; hSer = N[C@@H](CCO)C(=O)O; Nle = CCCC[C@H](N)C(=O)O; Aib = CC(C)(N)C(=O)O

B1: I-810 (peptide)
peptide: Ac-[αAllylPro]D[tBuAla][B5(4)]DDAAFT[PyrS2″][3Thi][Bta]H-NH2
modifications: staple 1-4, 4-11
B2: I-809 (peptide)
peptide: Ac-[αAllylPro]D[tBuAla][B5(3)]DDAAFT[PyrS2″][3Thi][Bta]Q-NH2
modifications: staple 1-4, 4-11
B3: I-812 (peptide)
peptide: Ac-[αAllylPro]D[tBuAla][B5(4)]DDAA[Ala(4-thiazolyl)]N[PyrS2″][3Thi][Bta]Q-NH2
modifications: staple 1-4, 4-11
B4: I-816 (peptide)
peptide: Ac-[αAllylPro]D[tBuAla][B5]DDAAFN[PyrS2″][3Thi][Bta]N-NH2
modifications: staple 1-4, 4-11
B5: I-815 (peptide)
peptide: Ac-[αAllylPro]D[tBuAla][B5]DDAAFN[PyrS2″][3Thi][Bta]S-NH2
modifications: staple 1-4, 4-11
B6: I-814 (peptide)
peptide: Ac-[αAllylPro]D[tBuAla][B5]DDAAFN[PyrS2″][3Thi][Bta]T-NH2
modifications: staple 1-4, 4-11
B7: I-813 (peptide)
peptide: Ac-[αAllylPro]D[tBuAla][B5]DDAAFN[PyrS2″][3Thi][Bta][dH]-NH2
modifications: staple 1-4, 4-11
B8: I-808 (peptide)
peptide: Ac-[αAllylPro]D[tBuAla][B5(4)]DDAAFF[PyrS2″][3Thi][Bta]H-NH2
modifications: staple 1-4, 4-11
B9: I-1182 (peptide)
peptide: Ac-PD[tBuAla][R5]DDAAFN[PyrS2″][3Thi][Bta]Q-NH2
modifications: staple 4-11
B10: I-1180 (peptide)
peptide: Ac-[αAllylPro]D[tBuAla][B5(21)]DD[Aib][Aib]FL[PyrS2″][3Thi][Bta]Q-NH2
modifications: staple 1-4, 4-11; also: later eluting HPLC peak (staple isomer composition)
B11: I-1196 (peptide)
peptide: Ac-[αAllylPro]D[tBuAla][B5(4)]DDAAFL[S8][Phe(2-Cl)][Bta][hSer]-NH2
modifications: staple 1-4, 4-11
B12: I-1193 (peptide)
peptide: Ac-[αAllylPro]D[tBuAla][B5(4)]DDAAFL[S8][3Thi][Bta][4TriA]-NH2
modifications: staple 1-4, 4-11
B13: I-1192 (peptide)
peptide: Ac-[αAllylPro]D[tBuAla][B5(4)]DDAAFL[S8][Phe(2-Cl)][Bta][4TriA]-NH2
modifications: staple 1-4, 4-11
B14: I-1195 (peptide)
peptide: Ac-[αAllylPro]D[tBuAla][B5″]DDAAFL[S8][3Thi][Bta]H-NH2
modifications: staple 1-4, 4-11
B15: I-1191 (peptide)
peptide: Ac-[αAllylPro]D[tBuAla][B5(4)]DDAAFL[S8][3Thi][Bta]T-NH2
modifications: staple 1-4, 4-11
B16: I-1189 (peptide)
peptide: Ac-[αAllylPro]D[tBuAla][B5(4)]DDAAFL[S8][Phe(2-Cl)][Bta]S-NH2
modifications: staple 1-4, 4-11
B17: I-1181 (peptide)
peptide: Ac-PD[tBuAla][R5]DDAAFL[PyrS2(3)][3Thi][Bta]Q-NH2
modifications: staple 4-11
B18: I-1194 (peptide)
peptide: Ac-[αAllylPro]D[tBuAla][B5(4)]DDAAFL[S8][Phe(2-Cl)][Bta]H-NH2
modifications: staple 1-4, 4-11
B19: I-1417 (peptide)
peptide: Ac-[αAllylPro]D[tBuAla][B5(5)]DDAAFL[PyrS2″][Phe(2-Cl)][Bta]L-NH2
modifications: staple 1-4, 4-11
B20: I-1431 (peptide)
peptide: Ac-[αAllylPro]D[tBuAla][B5(22)]DDAAFL[PyrS2][3Thi]WQ-NH2
modifications: staple 1-4, 4-11
B21: I-1434 (peptide)
peptide: Ac-[αAllylPro]D[tBuAla][B5(22)]DDAAFL[PyrS2][3Thi][Trp(1-Me)]S-NH2
modifications: staple 1-4, 4-11
B22: I-1414 (peptide)
peptide: Ac-[αAllylPro]DS[B5(12)]DDAAFL[PyrS2″][3Thi][Bta]L-NH2
modifications: staple 1-4, 4-11
B23: I-1433 (peptide)
peptide: Ac-[αAllylPro]D[tBuAla][B5(22)]DDAAFL[PyrS2][3Thi][Trp(1-Me)]Q-NH2
modifications: staple 1-4, 4-11
B24: I-1416 (peptide)
peptide: Ac-[αAllylPro]D[tBuAla][B5(5)]DDAAFL[PyrS2″][Phe(2-Cl)][Bta]L-NH2
modifications: staple 1-4, 4-11; also: staple isomer, earlier eluting HPLC peak
B25: I-1420 (peptide)
peptide: Ac-[αAllylPro]D[Nle][B5(5)]DDAAFL[PyrS2″][Phe(2-Cl)][Bta]L-NH2
modifications: staple 1-4, 4-11; also: staple isomer, earlier eluting HPLC peak
B26: I-1432 (peptide)
peptide: Ac-[αAllylPro]D[tBuAla][B5(22)]DDAAFL[PyrS2][3Thi]WS-NH2
modifications: staple 1-4, 4-11
B27: I-1421 (peptide)
peptide: Ac-[αAllylPro]D[Nle][B5(5)]DDAAFL[PyrS2″][Phe(2-Cl)][Bta]L-NH2
modifications: staple 1-4, 4-11; also: staple isomer of later HPLC peak
B28: I-1415 (peptide)
peptide: Ac-[αAllylPro]DT[B5(5)]DDAAFL[PyrS2″][3Thi][Bta]L-NH2
modifications: staple 1-4, 4-11
B29: I-2393 (peptide)
peptide: Ac-[αAllylPro]D[tBuAla][B5(5)]D[Phe(3-COOH)]AAFL[PyrS2][Phe(2-CF3)][Bta]QLR-NH2
modifications: staple 1-4, 4-11
B30: I-2391 (peptide)
peptide: Ac-[αAllylPro]D[tBuAla][B5(5)]D[Phe(3-COOH)]AAFL[PyrS2][Phe(2-CF3)][Bta]QL[Nle]-NH2
modifications: staple 1-4, 4-11
B31: I-2390 (peptide)
peptide: Ac-[αAllylPro]D[tBuAla][B5(5)]D[Phe(3-COOH)]AAFL[PyrS2][Phe(2-CF3)][Bta]QLN-NH2
modifications: staple 1-4, 4-11
B32: I-1723 (peptide)
peptide: Ac-[αAllylPro][(EtSSpy)AspE][tBuAla][B5]DDAAFN[PyrS2][Phe(2-Cl)][Bta]Q-NH2
modifications: staple 1-4, 4-11; also: earlier-eluting isomer
B33: I-1722 (peptide)
peptide: Ac-[αAllylPro][AspSH][tBuAla][B5]DDAAFN[PyrS2][Phe(2-Cl)][Bta]Q-NH2
modifications: staple 1-4, 4-11; not fully specified

target: full-length beta-Catenin (Uniprot ID P35222) (Homo sapiens (Human)) (UniProt P35222); test: fluorescence polarization competition, peptide titrated against full-length beta-catenin + 5FAM-TCF4(10-53)
Target sequence in this assay (P35222 2-781 limits assumed): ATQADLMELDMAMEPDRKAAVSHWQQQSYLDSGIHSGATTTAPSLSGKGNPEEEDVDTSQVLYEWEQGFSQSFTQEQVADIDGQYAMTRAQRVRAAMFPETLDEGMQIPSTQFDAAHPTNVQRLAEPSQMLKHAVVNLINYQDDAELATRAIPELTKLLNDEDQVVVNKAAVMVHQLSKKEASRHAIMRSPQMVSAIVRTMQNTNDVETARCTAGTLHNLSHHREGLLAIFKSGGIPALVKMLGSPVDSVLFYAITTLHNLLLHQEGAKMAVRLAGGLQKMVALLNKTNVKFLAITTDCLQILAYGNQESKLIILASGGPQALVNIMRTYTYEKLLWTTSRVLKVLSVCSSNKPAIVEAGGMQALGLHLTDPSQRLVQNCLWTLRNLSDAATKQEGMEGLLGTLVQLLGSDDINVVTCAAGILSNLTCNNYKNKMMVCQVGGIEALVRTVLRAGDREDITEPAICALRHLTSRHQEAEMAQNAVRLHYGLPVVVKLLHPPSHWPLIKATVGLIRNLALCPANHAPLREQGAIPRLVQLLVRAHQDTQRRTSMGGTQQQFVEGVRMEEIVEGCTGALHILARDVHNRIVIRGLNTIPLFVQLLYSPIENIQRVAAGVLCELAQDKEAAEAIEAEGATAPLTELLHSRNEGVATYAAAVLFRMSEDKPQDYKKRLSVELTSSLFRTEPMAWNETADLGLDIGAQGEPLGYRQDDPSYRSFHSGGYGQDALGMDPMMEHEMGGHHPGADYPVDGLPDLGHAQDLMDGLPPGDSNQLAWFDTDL

Row | EC50 | Binder
1 | 0.006 µM | B1
2 | 0.005 µM | B2
3 | 0.033 µM | B3
4 | 0.005 µM | B4
5 | 0.005 µM | B5
6 | 0.007 µM | B6
7 | 0.007 µM | B7
8 | 0.005 µM | B8

target: full-length beta-Catenin (Uniprot ID P35222) (Homo sapiens (Human)) (UniProt P35222); test: fluorescence polarization competition, displacement of 5FAM-TCF4 10-53 from full-length beta-catenin
Target sequence in this assay (P35222 2-781 limits assumed): as above

Row | IC50 | Binder
9 | 0.144 µM | B9
10 | 0.087 µM | B10
11 | 0.085 µM | B11
12 | 0.0785 µM | B12
13 | 0.0815 µM | B13
14 | 0.0295 µM | B14
15 | 0.0385 µM | B15
16 | 0.0945 µM | B16
17 | 0.297 µM | B17
18 | 0.0665 µM | B18

target: beta-catenin (Homo sapiens (Human)) (UniProt P35222); test: fluorescence polarization competition; full-length beta-catenin with 5FAM-TCF4(10-53) probe as competitor
Sequence (P35222 whole entry): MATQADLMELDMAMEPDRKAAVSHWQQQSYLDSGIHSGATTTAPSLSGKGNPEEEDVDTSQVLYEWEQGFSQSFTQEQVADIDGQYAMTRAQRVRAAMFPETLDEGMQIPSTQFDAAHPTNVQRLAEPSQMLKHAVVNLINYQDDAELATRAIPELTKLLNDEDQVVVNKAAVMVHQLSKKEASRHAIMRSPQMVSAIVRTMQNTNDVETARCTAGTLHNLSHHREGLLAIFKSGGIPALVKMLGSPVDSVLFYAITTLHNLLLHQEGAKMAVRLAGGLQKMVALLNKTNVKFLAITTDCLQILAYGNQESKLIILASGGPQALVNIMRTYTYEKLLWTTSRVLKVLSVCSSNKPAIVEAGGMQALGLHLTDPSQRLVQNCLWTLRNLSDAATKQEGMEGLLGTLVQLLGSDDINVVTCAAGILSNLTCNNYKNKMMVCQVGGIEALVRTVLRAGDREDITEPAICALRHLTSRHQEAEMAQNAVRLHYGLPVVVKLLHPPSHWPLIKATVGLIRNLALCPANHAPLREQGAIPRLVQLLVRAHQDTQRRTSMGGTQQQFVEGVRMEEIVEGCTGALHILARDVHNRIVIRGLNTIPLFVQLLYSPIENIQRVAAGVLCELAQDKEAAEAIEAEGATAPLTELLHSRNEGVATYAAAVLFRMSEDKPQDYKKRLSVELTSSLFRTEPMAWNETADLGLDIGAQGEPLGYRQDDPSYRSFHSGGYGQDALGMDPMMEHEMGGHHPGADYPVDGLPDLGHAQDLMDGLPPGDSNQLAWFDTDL

Row | EC50 | Binder
19 | 0.198 µM | B19
20 | 0.034 µM | B20
21 | 0.083 µM | B21
22 | 0.084 µM | B22
23 | 0.071 µM | B23
24 | 0.057 µM | B24
25 | 0.124 µM | B25
26 | 0.027 µM | B26
27 | 0.134 µM | B27
28 | 0.072 µM | B28

target: full-length beta-Catenin (Uniprot ID P35222) (Homo sapiens (Human)) (UniProt P35222); test: fluorescence polarization competition; 10 nM full-length beta-catenin with 10 nM 5FAM-TCF4(10-53) probe as competitor
Target sequence in this assay (P35222 2-781 limits assumed): as the sequence (P35222 2-781 limits assumed) above

Row | IC50 | Binder
29 | 0.006 µM | B1
30 | 0.005 µM | B2
31 | 0.033 µM | B3
32 | 0.005 µM | B4
33 | 0.005 µM | B5
34 | 0.007 µM | B6
35 | 0.007 µM | B7
36 | 0.005 µM | B8

target: full-length beta-Catenin (Uniprot ID P35222) (Homo sapiens (Human)) (UniProt P35222); test: fluorescence polarization competition; 5FAM-TCF4(10-53) probe displaced from full-length beta-catenin
Target sequence in this assay (P35222 2-781 limits assumed): as above

Row | IC50 | Binder
37 | 0.198 µM | B19
38 | 0.044 µM | B20
39 | 0.083 µM | B21
40 | 0.084 µM | B22
41 | 0.071 µM | B23
42 | 0.057 µM | B24
43 | 0.124 µM | B25
44 | 0.027 µM | B26
45 | 0.134 µM | B27
46 | 0.072 µM | B28

target: full-length beta-Catenin (Uniprot ID P35222) (Homo sapiens (Human)) (UniProt P35222); test: cell-based or functional assay
Target sequence in this assay (P35222 2-781 limits assumed): as above

Row | DLD1 4% Abs IC50 | Binder
47 | 5.6 µM | B29
48 | 0.7 µM | B30
49 | 1.4 µM | B31

target: full-length beta-Catenin (Uniprot ID P35222) (Homo sapiens (Human)) (UniProt P35222); test: fluorescence polarization competition; full-length beta-catenin, competitor 5FAM-TCF4(10-53)
Target sequence in this assay (P35222 2-781 limits assumed): as above

Row | IC50 | Binder
50 | 0.061 µM | B29
51 | 0.11 µM | B30
52 | 0.022 µM | B31

target: full-length beta-Catenin (Uniprot ID P35222) (Homo sapiens (Human)) (UniProt P35222); test: fluorescence polarization competition; 10 nM full-length beta-catenin + 10 nM 5FAM-TCF4(10-53) as competitor probe; peptide titrated

Row | IC50 | Binder
53 | 0.062 µM | B32
54 | 0.135 µM | B33

target: Bcat-Halo (UniProt P35222); test: NanoBRET Abs IC50, HEK293 cells; Bcat-Halo / TCF4-Luc engagement
Sequence (P35222 whole entry): as the sequence (P35222 whole entry) above

Row | IC50 | Binder
55 | > 20 µM | B29
56 | 8.2 µM | B30
57 | 9.1 µM | B31

target: full-length beta-Catenin (Uniprot ID P35222) (Homo sapiens (Human)) (UniProt P35222); test: fluorescence polarization competition; full-length beta-catenin; competitor 5FAM-TCF4(10-53) probe
Target sequence in this assay (P35222 whole entry, one chain of several): as the sequence (P35222 whole entry) above

Row | EC50 | Binder
58 | 0.144 µM | B9
59 | 0.087 µM | B10
60 | 0.085 µM | B11
61 | 0.0785 µM | B12
62 | 0.0815 µM | B13
63 | 0.0295 µM | B14
64 | 0.0385 µM | B15
65 | 0.0945 µM | B16
66 | 0.226 µM | B17
67 | 0.0665 µM | B18
